*1 amine or outer side, *2 acyl side, *3 side chain or, on linkers, in order; H or OH if unused. Side-chain parts run from the residue outwards. The star is where a group is joined. C18 diacid = O=C(O)CCCCCCCCCCCCCCCCC(=O)*; γGlu = O=C(O)[C@H](CCC(=O)[*:2])N[*:1]; Isovaleryl = CC(C)CC(=O)*; Ahx = NCCCCCC(=O)O

The chains are these.
T1: human NPY2 receptor (human, UniProt P49146 1-381)
T1 construct: whole, on cells; also called hNPY2-R; hNPY2R
T1 sequence (looked up): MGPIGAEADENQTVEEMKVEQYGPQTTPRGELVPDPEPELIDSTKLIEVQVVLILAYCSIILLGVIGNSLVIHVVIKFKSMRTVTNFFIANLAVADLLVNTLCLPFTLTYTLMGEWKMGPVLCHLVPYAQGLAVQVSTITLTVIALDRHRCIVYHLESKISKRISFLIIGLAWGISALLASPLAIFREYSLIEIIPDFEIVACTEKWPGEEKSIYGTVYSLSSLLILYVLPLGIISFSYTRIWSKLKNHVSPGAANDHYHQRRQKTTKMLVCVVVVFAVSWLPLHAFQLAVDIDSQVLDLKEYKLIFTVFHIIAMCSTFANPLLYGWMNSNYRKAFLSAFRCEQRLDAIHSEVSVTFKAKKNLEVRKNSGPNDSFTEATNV

B1: Compound 108 (peptide)
peptide: Isovaleryl-APEK([Ahx-γGlu-C18 diacid])PEADASEEELQRYYVSLRHYYNWLTRQRY-NH2
SMILES: CC(C)CC(=O)N[C@@H](C)C(=O)N1CCC[C@H]1C(=O)N[C@@H](CCC(=O)O)C(=O)N[C@@H](CCCCNC(=O)CCCCCNC(=O)CC[C@H](NC(=O)CCCCCCCCCCCCCCCCC(=O)O)C(=O)O)C(=O)N1CCC[C@H]1C(=O)N[C@@H](CCC(=O)O)C(=O)N[C@@H](C)C(=O)N[C@@H](CC(=O)O)C(=O)N[C@@H](C)C(=O)N[C@@H](CO)C(=O)N[C@@H](CCC(=O)O)C(=O)N[C@@H](CCC(=O)O)C(=O)N[C@@H](CCC(=O)O)C(=O)N[C@@H](CC(C)C)C(=O)N[C@@H](CCC(N)=O)C(=O)N[C@@H](CCCNC(=N)N)C(=O)N[C@@H](Cc1ccc(O)cc1)C(=O)N[C@@H](Cc1ccc(O)cc1)C(=O)N[C@H](C(=O)N[C@@H](CO)C(=O)N[C@@H](CC(C)C)C(=O)N[C@@H](CCCNC(=N)N)C(=O)N[C@@H](Cc1c[nH]cn1)C(=O)N[C@@H](Cc1ccc(O)cc1)C(=O)N[C@@H](Cc1ccc(O)cc1)C(=O)N[C@@H](CC(N)=O)C(=O)N[C@@H](Cc1c[nH]c2ccccc12)C(=O)N[C@@H](CC(C)C)C(=O)N[C@H](C(=O)N[C@@H](CCCNC(=N)N)C(=O)N[C@@H](CCC(N)=O)C(=O)N[C@@H](CCCNC(=N)N)C(=O)N[C@@H](Cc1ccc(O)cc1)C(N)=O)[C@@H](C)O)C(C)C
B2: Compound 111 (peptide)
peptide: Isovaleryl-APAK([Ahx-γGlu-C18 diacid])PEAAAEPEEIQRYYVSLRHYYNWLTRQRY-NH2
SMILES: CC[C@H](C)[C@H](NC(=O)[C@H](CCC(=O)O)NC(=O)[C@H](CCC(=O)O)NC(=O)[C@@H]1CCCN1C(=O)[C@H](CCC(=O)O)NC(=O)[C@H](C)NC(=O)[C@H](C)NC(=O)[C@H](C)NC(=O)[C@H](CCC(=O)O)NC(=O)[C@@H]1CCCN1C(=O)[C@H](CCCCNC(=O)CCCCCNC(=O)CC[C@H](NC(=O)CCCCCCCCCCCCCCCCC(=O)O)C(=O)O)NC(=O)[C@H](C)NC(=O)[C@@H]1CCCN1C(=O)[C@H](C)NC(=O)CC(C)C)C(=O)N[C@@H](CCC(N)=O)C(=O)N[C@@H](CCCNC(=N)N)C(=O)N[C@@H](Cc1ccc(O)cc1)C(=O)N[C@@H](Cc1ccc(O)cc1)C(=O)N[C@H](C(=O)N[C@@H](CO)C(=O)N[C@@H](CC(C)C)C(=O)N[C@@H](CCCNC(=N)N)C(=O)N[C@@H](Cc1c[nH]cn1)C(=O)N[C@@H](Cc1ccc(O)cc1)C(=O)N[C@@H](Cc1ccc(O)cc1)C(=O)N[C@@H](CC(N)=O)C(=O)N[C@@H](Cc1c[nH]c2ccccc12)C(=O)N[C@@H](CC(C)C)C(=O)N[C@H](C(=O)N[C@@H](CCCNC(=N)N)C(=O)N[C@@H](CCC(N)=O)C(=O)N[C@@H](CCCNC(=N)N)C(=O)N[C@@H](Cc1ccc(O)cc1)C(N)=O)[C@@H](C)O)C(C)C
B3: Compound 110 (peptide)
peptide: Isovaleryl-APEK([Ahx-γGlu-C18 diacid])PEEDATPEELQRYYVELRHYYNWLTRQRY-NH2
SMILES: CC(C)CC(=O)N[C@@H](C)C(=O)N1CCC[C@H]1C(=O)N[C@@H](CCC(=O)O)C(=O)N[C@@H](CCCCNC(=O)CCCCCNC(=O)CC[C@H](NC(=O)CCCCCCCCCCCCCCCCC(=O)O)C(=O)O)C(=O)N1CCC[C@H]1C(=O)N[C@@H](CCC(=O)O)C(=O)N[C@@H](CCC(=O)O)C(=O)N[C@@H](CC(=O)O)C(=O)N[C@@H](C)C(=O)N[C@H](C(=O)N1CCC[C@H]1C(=O)N[C@@H](CCC(=O)O)C(=O)N[C@@H](CCC(=O)O)C(=O)N[C@@H](CC(C)C)C(=O)N[C@@H](CCC(N)=O)C(=O)N[C@@H](CCCNC(=N)N)C(=O)N[C@@H](Cc1ccc(O)cc1)C(=O)N[C@@H](Cc1ccc(O)cc1)C(=O)N[C@H](C(=O)N[C@@H](CCC(=O)O)C(=O)N[C@@H](CC(C)C)C(=O)N[C@@H](CCCNC(=N)N)C(=O)N[C@@H](Cc1c[nH]cn1)C(=O)N[C@@H](Cc1ccc(O)cc1)C(=O)N[C@@H](Cc1ccc(O)cc1)C(=O)N[C@@H](CC(N)=O)C(=O)N[C@@H](Cc1c[nH]c2ccccc12)C(=O)N[C@@H](CC(C)C)C(=O)N[C@H](C(=O)N[C@@H](CCCNC(=N)N)C(=O)N[C@@H](CCC(N)=O)C(=O)N[C@@H](CCCNC(=N)N)C(=O)N[C@@H](Cc1ccc(O)cc1)C(N)=O)[C@@H](C)O)C(C)C)[C@@H](C)O
B4: Compound 112 (peptide)
peptide: Isovaleryl-APEK([Ahx-γGlu-C18 diacid])PEEDAEPEEIQRYYVSLRHYYNWLTRQRY-NH2
SMILES: CC[C@H](C)[C@H](NC(=O)[C@H](CCC(=O)O)NC(=O)[C@H](CCC(=O)O)NC(=O)[C@@H]1CCCN1C(=O)[C@H](CCC(=O)O)NC(=O)[C@H](C)NC(=O)[C@H](CC(=O)O)NC(=O)[C@H](CCC(=O)O)NC(=O)[C@H](CCC(=O)O)NC(=O)[C@@H]1CCCN1C(=O)[C@H](CCCCNC(=O)CCCCCNC(=O)CC[C@H](NC(=O)CCCCCCCCCCCCCCCCC(=O)O)C(=O)O)NC(=O)[C@H](CCC(=O)O)NC(=O)[C@@H]1CCCN1C(=O)[C@H](C)NC(=O)CC(C)C)C(=O)N[C@@H](CCC(N)=O)C(=O)N[C@@H](CCCNC(=N)N)C(=O)N[C@@H](Cc1ccc(O)cc1)C(=O)N[C@@H](Cc1ccc(O)cc1)C(=O)N[C@H](C(=O)N[C@@H](CO)C(=O)N[C@@H](CC(C)C)C(=O)N[C@@H](CCCNC(=N)N)C(=O)N[C@@H](Cc1c[nH]cn1)C(=O)N[C@@H](Cc1ccc(O)cc1)C(=O)N[C@@H](Cc1ccc(O)cc1)C(=O)N[C@@H](CC(N)=O)C(=O)N[C@@H](Cc1c[nH]c2ccccc12)C(=O)N[C@@H](CC(C)C)C(=O)N[C@H](C(=O)N[C@@H](CCCNC(=N)N)C(=O)N[C@@H](CCC(N)=O)C(=O)N[C@@H](CCCNC(=N)N)C(=O)N[C@@H](Cc1ccc(O)cc1)C(N)=O)[C@@H](C)O)C(C)C
B5: Compound 109 (peptide)
peptide: Isovaleryl-APEK([Ahx-γGlu-C18 diacid])PEEDLTPEELQRYYVSLRHYYNWLTRQRY-NH2
SMILES: CC(C)CC(=O)N[C@@H](C)C(=O)N1CCC[C@H]1C(=O)N[C@@H](CCC(=O)O)C(=O)N[C@@H](CCCCNC(=O)CCCCCNC(=O)CC[C@H](NC(=O)CCCCCCCCCCCCCCCCC(=O)O)C(=O)O)C(=O)N1CCC[C@H]1C(=O)N[C@@H](CCC(=O)O)C(=O)N[C@@H](CCC(=O)O)C(=O)N[C@@H](CC(=O)O)C(=O)N[C@@H](CC(C)C)C(=O)N[C@H](C(=O)N1CCC[C@H]1C(=O)N[C@@H](CCC(=O)O)C(=O)N[C@@H](CCC(=O)O)C(=O)N[C@@H](CC(C)C)C(=O)N[C@@H](CCC(N)=O)C(=O)N[C@@H](CCCNC(=N)N)C(=O)N[C@@H](Cc1ccc(O)cc1)C(=O)N[C@@H](Cc1ccc(O)cc1)C(=O)N[C@H](C(=O)N[C@@H](CO)C(=O)N[C@@H](CC(C)C)C(=O)N[C@@H](CCCNC(=N)N)C(=O)N[C@@H](Cc1c[nH]cn1)C(=O)N[C@@H](Cc1ccc(O)cc1)C(=O)N[C@@H](Cc1ccc(O)cc1)C(=O)N[C@@H](CC(N)=O)C(=O)N[C@@H](Cc1c[nH]c2ccccc12)C(=O)N[C@@H](CC(C)C)C(=O)N[C@H](C(=O)N[C@@H](CCCNC(=N)N)C(=O)N[C@@H](CCC(N)=O)C(=O)N[C@@H](CCCNC(=N)N)C(=O)N[C@@H](Cc1ccc(O)cc1)C(N)=O)[C@@H](C)O)C(C)C)[C@@H](C)O

The target of this assay is T1, human NPY2 receptor. Description: RLB: displacement of 125I-PYY(1-36) from hNPY2R membranes.
B1: the Ki was found to be 2.77 nM.

On to B2, for which the Ki worked out at 2.14 nM.

With B3, the inhibitory constant (Ki) worked out at 6.42 nM.

As for B4, the affinity corresponds to a Ki of 4.28 nM.

B5 showed a Ki of 14 nM.

The record behind these values is patent publication US20260015399A1 (Boehringer Ingelheim, published 2026).
